Laboratory results from US20100216853.
Substitutions are numbered along the chain they refer to. Names and notes keep the numbering of the source.

T1: H4-15 histone H4 tail peptide
T1 chain: GRGKGGKGLGKGGAK

T2: H4-12(K5X/K12A) peptide
T2 chain: RGXGGKGLGAGA

T3: H4-15(K5D/K12D) peptide
T3 chain: GRGDGGKGLGDGGAK

T4: H4-12(K5A/K12A) peptide
T4 chain: RGAGGKGLGAGA

B1: semi-synthetic p300 HAT domain E1505R (protein)
chain: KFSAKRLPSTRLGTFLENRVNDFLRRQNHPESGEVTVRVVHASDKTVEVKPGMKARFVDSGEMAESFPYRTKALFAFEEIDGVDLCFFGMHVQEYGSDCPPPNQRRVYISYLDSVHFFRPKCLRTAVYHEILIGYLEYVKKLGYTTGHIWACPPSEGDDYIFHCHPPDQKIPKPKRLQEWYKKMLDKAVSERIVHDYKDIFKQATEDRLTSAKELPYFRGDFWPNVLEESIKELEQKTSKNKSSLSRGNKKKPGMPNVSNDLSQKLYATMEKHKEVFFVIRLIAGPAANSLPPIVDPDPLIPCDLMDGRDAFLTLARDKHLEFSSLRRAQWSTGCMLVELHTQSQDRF
B2: semi-synthetic p300 HAT domain T1357R (protein)
chain: B1 chain with T71R, R219E
B3: semi-synthetic p300 HAT domain Y1467F (protein)
chain: B1 chain with Y181F, R219E
B4: semi-synthetic p300 HAT domain, wild-type (protein)
chain: B1 chain with R219E
B5: semi-synthetic p300 HAT domain D1625R (protein)
chain: B1 chain with R219E, D307R
B6: semi-synthetic p300 HAT domain T1357L (protein)
chain: B1 chain with T71L, R219E
B7: semi-synthetic p300 HAT domain R1410K (protein)
chain: B1 chain with R124K, R219E
B8: semi-synthetic p300 HAT domain D1625R/D1628R double mutant (protein)
chain: B1 chain with R219E, D307R, D310R
B9: semi-synthetic p300 HAT domain H1434A (protein)
chain: B1 chain with H148A, R219E
B10: semi-synthetic p300 HAT domain W1436A (protein)
chain: B1 chain with W150A, R219E
B11: semi-synthetic p300 HAT domain S1396R/Y1397R double mutant (protein)
chain: B1 chain with S110R, Y111R, R219E
B12: semi-synthetic p300 HAT domain R1410A (protein)
chain: B1 chain with R124A, R219E
B13: semi-synthetic p300 HAT domain E1505R/D1625R/D1628R triple mutant (protein)
chain: B1 chain with D307R, D310R
B14: semi-synthetic p300 HAT domain Y1394F (protein)
chain: B1 chain with Y108F, R219E
B15: semi-synthetic p300 HAT domain D1628R (protein)
chain: B1 chain with R219E, D310R

Columns and labels:
[1] = molecular target: T1, H4-15 histone H4 tail peptide
H4-12(K5X/K12A) peptide = molecular target: T2, H4-12(K5X/K12A) peptide
H4-15(K5D/K12D) peptide = molecular target: T3, H4-15(K5D/K12D) peptide
H4-12(K5A/K12A) peptide = molecular target: T4, H4-12(K5A/K12A) peptide

Row | Protein | Km(µM) for H4-15 [1] | V/K [1] | also measured
1 | B1 | >1000 | 2000 M⁻¹ s⁻¹ | V/K decrease against wild-type [1]: V/K was decreased by 12-fold
2 | B2 | 294 µM | 13200 M⁻¹ s⁻¹ | –
3 | B3 | 520 µM | – | –
4 | B4 | 164 µM | 25000 ± 1640 M⁻¹ s⁻¹ | Km (H4-12(K5X/K12A) peptide): Km of these substrates were generally too high to be measured (>1000 µM); V/K(M^-1s^-1) for W.T. (H4-12(K5X/K12A) peptide): 5250 M⁻¹ s⁻¹; Km (H4-15(K5D/K12D) peptide): Km of these substrates were generally too high to be measured (>1000 µM); V/K(M^-1s^-1) for W.T. (H4-15(K5D/K12D) peptide): 636 M⁻¹ s⁻¹; Km (H4-12(K5A/K12A) peptide): Km of these substrates were generally too high to be measured (>1000 µM); V/K(M^-1s^-1) for W.T. (H4-12(K5A/K12A) peptide): 3820 M⁻¹ s⁻¹; V/K(M^-1s^-1) for W.T. [1]: 25000 M⁻¹ s⁻¹
5 | B5 | 640 µM | 5670 M⁻¹ s⁻¹ | V/K decrease against wild-type [1]: a V/K decrease of about 5-fold
6 | B6 | 111 µM | 18700 M⁻¹ s⁻¹ | –
7 | B7 | 156 µM | – | –
8 | B8 | >1000 | 1160 M⁻¹ s⁻¹ | V/K(M^-1s^-1) for D1625R/D1628R (H4-12(K5X/K12A) peptide): 738 M⁻¹ s⁻¹; loss in V/K against wild-type (H4-12(K5X/K12A) peptide): the loss of 6-fold in V/K for neutral H4 substrates; V/K(M^-1s^-1) for D1625R/D1628R (H4-15(K5D/K12D) peptide): 422 M⁻¹ s⁻¹; acetyltransferase activity against wild-type (H4-15(K5D/K12D) peptide): almost equal (within 2-fold) acetyltransferase activity; V/K(M^-1s^-1) for D1625R/D1628R (H4-12(K5A/K12A) peptide): 515 M⁻¹ s⁻¹; loss in V/K against wild-type (H4-12(K5A/K12A) peptide): the loss of 6-fold in V/K for neutral H4 substrates; V/K difference against wild-type [1]: the 22-fold V/K difference between wild-type p300 HAT protein and the D1625R/D1628R mutant for H4-15 substrate; V/K drop against wild-type [1]: a 20-fold drop in V/K; V/K(M^-1s^-1) for D1625R/D1628R [1]: 1160 M⁻¹ s⁻¹
9 | B9 | 151 µM | – | –
10 | B10 | 394 µM | – | –
11 | B11 | – | – | decrease of p300 HAT activity against wild-type [1]: severely decreased p300 HAT activity (>50-fold)
12 | B12 | 190 µM | – | –
13 | B13 | >1000 | 232 M⁻¹ s⁻¹ | –
14 | B14 | 136 µM | – | –
15 | B15 | >1000 | 2100 M⁻¹ s⁻¹ | V/K decrease against wild-type [1]: V/K was decreased by 12-fold
